# Laboratory results: patent publication US20250136717A1 (BYONDIS B V, published 2025)
# Like-named read-outs stand apart in the source and are kept apart here.
# B1: S306 (antibody, human IgG1, kappa)
# heavy: not shown
# light: DIQLTQSPSSLSASVGDRVSITCKASQDVSIAVAWYQQKPGKAPKLLIYSASYRYTGVPDRFSGSGSGTDFTLTISSLQPEDFAVYYCQQHYITPLTFGAGTKVEIKRTVAAPSVFIFPPSDEQLKSGTASVVCLLNNFYPREAKVQWKVDNALQSGNSQESVTEQDSKDSTYSLSSTLTLSKADYEKHKVYACEVTHQGLSSPVTKSFNRGEC
# notes: also called Anti-TROP2 sacituzumab hRS7 (naked)
# B2: S312 (antibody)
# heavy: not shown
# light: DIQMTQSPPSLSASAGDRVTITCRASQGISSRLAWYQQKPEKAPKSLIYAASSLQSGVPSRFSGSGSGTDFTLTISSLQPEDFATYYCQQYNSYPYTFGQGTKLEIKRTVAAPSVFIFPPSDEQLKSGTASVVCLLNNFYPREAKVQWKVDNALQSGNSQESVTEQDSKDSTYSLSSTLTLSKADYEKHKVYACEVTHQGLSSPVTKSFNRGEC
# notes: also called Anti-TF tisotumab (TF-011) (naked); parent antibody tisotumab
# B3: S304 (antibody, human IgG1, kappa)
# heavy: not shown
# light: QVQLVESGGGLVQPGGSLTLSCTASGFTLDHYDIGWFRQAPGKEREGVSCINNSDDDTYYADSVKGRFTIFMNNAKDTVYLQMNSLKPEDTAIYYCAEARGCKRGRYEYDFWGQGTQVTVSSGGGGSPLGLAGGGSELQMTQSPSSLSASVGDRVTITCRTSQSISSYLNWYQQKPGQPPKLLIYWASTRESGVPDRFSGSGSGTDFTLTISSLQPEDSATYYCQQSYDIPYTFGQGTKLEIKRTVAAPSVFIFPPSDEQLKSGTASVVCLLNNFYPREAKVQWKVDNALQSGNSQESVTEQDSKDSTYSLSSTLTLSKADYEKHKVYACEVTHQGLSSPVTKSFNRGEC
# notes: also called masked adecatumumab Qg-BC2T-L9-HC / BC2-Nb-L9-LC
# B4: S305 (antibody, human IgG1, kappa)
# heavy: not shown
# light: B3 light
# notes: also called masked P41C adecatumumab Qg-BC2T-L9-HC (P41C) / BC2-Nb-L9-LC
# B5: S310 (antibody, human IgG1, kappa)
# heavy: not shown
# light: QVQLVESGGGLVQPGGSLTLSCTASGFTLDHYDIGWFRQAPGKEREGVSCINNSDDDTYYADSVKGRFTIFMNNAKDTVYLQMNSLKPEDTAIYYCAEARGCKRGRYEYDFWGQGTQVTVSSGGGGSPLGLAGGGSDIQMTQSPSSLSASVGDRVTITCKASQDIRKYLNWYQQKPGKAPKLLIYYATSLADGVPSRFSGSGSGTDYTFTISSLQPEDIATYYCLQHGESPYTFGQGTKLEITRTVAAPSVFIFPPSDEQLKSGTASVVCLLNNFYPREAKVQWKVDNALQSGNSQESVTEQDSKDSTYSLSSTLTLSKADYEKHKVYACEVTHQGLSSPVTKSFNRGEC
# notes: also called masked MORAb-066 Qg-BC2T-L9-HC / BC2-Nb-L9-LC
# B6: S311 (antibody, human IgG1, kappa)
# heavy: not shown
# light: B5 light
# notes: also called masked P41C MORAb-066 Qg-BC2T-L9-HC (P41C) / BC2-Nb-L9-LC
# B7: S313 (antibody)
# heavy: not shown
# light: QVQLVESGGGLVQPGGSLTLSCTASGFTLDHYDIGWFRQAPGKEREGVSCINNSDDDTYYADSVKGRFTIFMNNAKDTVYLQMNSLKPEDTAIYYCAEARGCKRGRYEYDFWGQGTQVTVSSGGGGSPLGLAGGGSDIQMTQSPPSLSASAGDRVTITCRASQGISSRLAWYQQKPEKAPKSLIYAASSLQSGVPSRFSGSGSGTDFTLTISSLQPEDFATYYCQQYNSYPYTFGQGTKLEIKRTVAAPSVFIFPPSDEQLKSGTASVVCLLNNFYPREAKVQWKVDNALQSGNSQESVTEQDSKDSTYSLSSTLTLSKADYEKHKVYACEVTHQGLSSPVTKSFNRGEC
# notes: also called masked tisotumab Qg-BC2T-L9-HC / BC2-Nb-L9-LC
# B8: S314 (antibody)
# heavy: not shown
# light: B7 light
# notes: also called masked P41C tisotumab Qg-BC2T-L9-HC (P41C) / BC2-Nb-L9-LC
# B9: S303 (antibody, human IgG1, kappa)
# heavy: not shown
# light: ELQMTQSPSSLSASVGDRVTITCRTSQSISSYLNWYQQKPGQPPKLLIYWASTRESGVPDRFSGSGSGTDFTLTISSLQPEDSATYYCQQSYDIPYTFGQGTKLEIKRTVAAPSVFIFPPSDEQLKSGTASVVCLLNNFYPREAKVQWKVDNALQSGNSQESVTEQDSKDSTYSLSSTLTLSKADYEKHKVYACEVTHQGLSSPVTKSFNRGEC
# notes: also called Anti-EpCAM adecatumumab (MT-201) (naked)
# B10: S309 (antibody, human IgG1, kappa)
# heavy: not shown
# light: DIQMTQSPSSLSASVGDRVTITCKASQDIRKYLNWYQQKPGKAPKLLIYYATSLADGVPSRFSGSGSGTDYTFTISSLQPEDIATYYCLQHGESPYTFGQGTKLEITRTVAAPSVFIFPPSDEQLKSGTASVVCLLNNFYPREAKVQWKVDNALQSGNSQESVTEQDSKDSTYSLSSTLTLSKADYEKHKVYACEVTHQGLSSPVTKSFNRGEC
# notes: also called Anti-TF MORAb-066, CNT0860 (naked)
# B11: S300 (antibody, human IgG1, kappa)
# heavy: not shown
# light: DIVMTQSALSNPVTLGESGSISCRSSKSLLHSNGITYLYWYLQKPGQSPQLLIYQMSNRASGVPDRFSSSGSGTDFTLKISRVEAEDVGVYYCAQNLELPRTFGQGTKLEMKRTVAAPSVFIFPPSDEQLKSGTASVVCLLNNFYPREAKVQWKVDNALQSGNSQESVTEQDSKDSTYSLSSTLTLSKADYEKHKVYACEVTHQGLSSPVTKSFNRGEC
# notes: also called Anti-EpCAM ING-1 (naked)
# B12: S301 (antibody, human IgG1, kappa)
# heavy: not shown
# light: QVQLVESGGGLVQPGGSLTLSCTASGFTLDHYDIGWFRQAPGKEREGVSCINNSDDDTYYADSVKGRFTIFMNNAKDTVYLQMNSLKPEDTAIYYCAEARGCKRGRYEYDFWGQGTQVTVSSGGGGSPLGLAGGGSDIVMTQSALSNPVTLGESGSISCRSSKSLLHSNGITYLYWYLQKPGQSPQLLIYQMSNRASGVPDRFSSSGSGTDFTLKISRVEAEDVGVYYCAQNLELPRTFGQGTKLEMKRTVAAPSVFIFPPSDEQLKSGTASVVCLLNNFYPREAKVQWKVDNALQSGNSQESVTEQDSKDSTYSLSSTLTLSKADYEKHKVYACEVTHQGLSSPVTKSFNRGEC
# notes: also called masked ING-1 Qg-BC2T-L9-HC / BC2-Nb-L9-LC
# B13: S302 (antibody, human IgG1, kappa)
# heavy: not shown
# light: B12 light
# notes: also called masked P41C ING-1 Qg-BC2T-L9-HC (P41C) / BC2-Nb-L9-LC
# B14: S307 (antibody, human IgG1, kappa)
# heavy: not shown
# light: QVQLVESGGGLVQPGGSLTLSCTASGFTLDHYDIGWFRQAPGKEREGVSCINNSDDDTYYADSVKGRFTIFMNNAKDTVYLQMNSLKPEDTAIYYCAEARGCKRGRYEYDFWGQGTQVTVSSGGGGSPLGLAGGGSDIQLTQSPSSLSASVGDRVSITCKASQDVSIAVAWYQQKPGKAPKLLIYSASYRYTGVPDRFSGSGSGTDFTLTISSLQPEDFAVYYCQQHYITPLTFGAGTKVEIKRTVAAPSVFIFPPSDEQLKSGTASVVCLLNNFYPREAKVQWKVDNALQSGNSQESVTEQDSKDSTYSLSSTLTLSKADYEKHKVYACEVTHQGLSSPVTKSFNRGEC
# notes: also called masked sacituzumab Qg-BC2T-L9-HC / BC2-Nb-L9-LC
# B15: S308 (antibody, human IgG1, kappa)
# heavy: not shown
# light: B14 light
# notes: also called masked P41C sacituzumab Qg-BC2T-L9-HC (P41C) / BC2-Nb-L9-LC
# How the values were obtained:
# [1] = target: T1, Protein A (Protein A sensor tips, Forte Bio, 18-5012) (UniProt P38507 37-327); assay: BLI, Protein A tips
# T1 construct: used to correct for the concentration of the antibody samples
# Source text: (§1) To correct for differences in concentration between the analyte stocks, Protein A binding was estimated for the same samples.
# (§2) The 70s report point corresponds to 10s of association, since a baseline is created in the first 60 seconds.
# [2] = target: T2, Biotinylated Human TROP2/TACSTD2 Protein, His Avitag, Cat. No. TR2-H82E5 (human, UniProt P09758 27-274, biotinylated); assay: BLI, TROP2 signal over Protein A signal
# T2 construct: immobilized on SAX biosensor tips
# T2 sequence (looked up): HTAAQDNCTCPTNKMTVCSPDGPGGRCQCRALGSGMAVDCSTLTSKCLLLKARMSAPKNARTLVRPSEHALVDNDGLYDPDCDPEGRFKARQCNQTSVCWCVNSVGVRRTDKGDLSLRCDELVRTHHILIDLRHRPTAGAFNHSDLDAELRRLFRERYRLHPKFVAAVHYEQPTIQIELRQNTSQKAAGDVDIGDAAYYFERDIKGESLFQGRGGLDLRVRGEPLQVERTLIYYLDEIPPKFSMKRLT
# Source text: as §1, §2
# [3] = target: T2, Biotinylated Human TROP2/TACSTD2 …; assay: BLI, TROP2 on SAX tips
# Source text: as §1, §2
# [4] = target: T1, Protein A (Protein A sensor tips, Forte …); assay: BLI, Protein A tips; remark: listed apart in the source
# Source text: as §1
# [5] = target: T3, Human Coagulation Factor III/Tissue Factor Protein, His Tag, Cat. No. TF3-H52H5 (human, UniProt P13726 33-251); assay: BLI, TF on Ni-NTA tips
# T3 construct: immobilized on Ni-NTA biosensor tips
# T3 sequence (P13726 33-251 limits assumed): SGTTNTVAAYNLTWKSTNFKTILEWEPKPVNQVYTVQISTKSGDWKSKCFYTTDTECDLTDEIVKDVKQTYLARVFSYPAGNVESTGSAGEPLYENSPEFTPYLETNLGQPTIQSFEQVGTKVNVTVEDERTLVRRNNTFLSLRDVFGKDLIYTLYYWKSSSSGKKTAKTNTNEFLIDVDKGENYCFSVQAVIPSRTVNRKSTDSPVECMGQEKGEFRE
# Source text: as §1
# [6] = target: T3, Human Coagulation Factor III/Tissue …; assay: BLI, TF signal over Protein A signal
# Source text: as §1
# [7] = target: T4, Biotinylated Human EpCAM/TROP1 Protein, Avitag His tag, Cat. No. EPM-H82E8 (human, UniProt P16422 24-265, biotinylated); assay: BLI, EpCAM on SAX tips
# T4 construct: immobilized on SAX biosensor tips
# T4 sequence (looked up): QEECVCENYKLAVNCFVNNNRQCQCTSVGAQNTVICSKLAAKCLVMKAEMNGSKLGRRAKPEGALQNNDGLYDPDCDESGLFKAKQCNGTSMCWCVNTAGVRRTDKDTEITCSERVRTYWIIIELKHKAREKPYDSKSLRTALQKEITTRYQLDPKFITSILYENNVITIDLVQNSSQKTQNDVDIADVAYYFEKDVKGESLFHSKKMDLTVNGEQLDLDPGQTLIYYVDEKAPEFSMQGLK
# Source text: as §1, §2
# [8] = target: T4, Biotinylated Human EpCAM/TROP1 Protein, …; assay: BLI, EpCAM signal over Protein A signal
# Source text: as §1, §2
# [9] = target: T1, Protein A (Protein A sensor tips, Forte …); assay: BLI, Protein A tips; remark: listed apart in the source
# Source text: as §1, §2
# [10] = target: T1, Protein A (Protein A sensor tips, Forte …); assay: BLI, Protein A tips; remark: listed apart in the source
# Source text: as §1
# [11] = target: T1, Protein A (Protein A sensor tips, Forte …); assay: BLI, Protein A tips; remark: listed apart in the source
# Source text: as §1, §2
# [12] = target: T4, Biotinylated Human EpCAM/TROP1 Protein, …; assay: BLI, EpCAM signal over Protein A signal; remark: listed apart in the source
# Source text: as §1, §2
# [13] = target: T4, Biotinylated Human EpCAM/TROP1 Protein, …; assay: BLI, EpCAM on SAX tips; remark: listed apart in the source
# Source text: as §1, §2
binder,measurement,setting,value
B1,Protein A binding after 10 s of association,[1],0.915 nm
same,TROP2/Protein A * 1000,[2],818
same,TROP2 binding after 10 s of association,[3],0.749 nm
B2,Protein A binding after 10 s of association,[4],1.75 nm
same,TF binding after 10 s of association,[5],1.12 nm
same,TF/Protein A * 1000,[6],641
B3,EpCAM binding after 10 s of association,[7],0.0247 nm
same,EpCAM/Protein A * 1000,[8],18.3
same,Protein A binding after 10 s of association,[9],1.35 nm
B4,EpCAM binding after 10 s of association,[7],0.0189 nm
same,EpCAM/Protein A * 1000,[8],14.5
same,Protein A binding after 10 s of association,[9],1.31 nm
B5,Protein A binding after 10 s of association,[10],0.993 nm
B6,Protein A binding after 10 s of association,[10],1.33 nm
B7,Protein A binding after 10 s of association,[4],1.73 nm
B8,Protein A binding after 10 s of association,[4],1.37 nm
B9,EpCAM binding after 10 s of association,[7],1.85 nm
same,EpCAM/Protein A * 1000,[8],599
same,Protein A binding after 10 s of association,[9],3.09 nm
B10,Protein A binding after 10 s of association,[10],1.79 nm
B11,Protein A binding after 10 s of association,[11],0.95 nm
same,EpCAM/Protein A * 1000,[12],997
same,EpCAM binding after 10 s of association,[13],0.947 nm
B12,Protein A binding after 10 s of association,[11],0.541 nm
same,EpCAM/Protein A * 1000,[12],137
same,EpCAM binding after 10 s of association,[13],0.074 nm
B13,Protein A binding after 10 s of association,[11],0.275 nm
same,EpCAM/Protein A * 1000,[12],129
same,EpCAM binding after 10 s of association,[13],0.0354 nm
B14,Protein A binding after 10 s of association,[1],1.11 nm
same,TROP2/Protein A * 1000,[2],31.1
same,TROP2 binding after 10 s of association,[3],0.0345 nm
B15,Protein A binding after 10 s of association,[1],0.646 nm
same,TROP2/Protein A * 1000,[2],23.8
same,TROP2 binding after 10 s of association,[3],0.0154 nm
